Measurements from US12698507B2, “Methods and compositions for conferring and/or enhancing herbicide tolerance using protoporphyrinogen IX oxidase of various cyanobacteria or variant thereof” (FarmHannong Co., Ltd., priority 2019, dated 2026).

Tested on: PPO-deficient BT3 E. coli (ΔPPO)
Test: PPO-inhibiting herbicide tolerance test of PPO variants in E. coli (growth on herbicide-containing LB agar)
Type: cell-based
Conditions: CyPPO19 variants in BT3 (ΔPPO) E. coli; LB agar with 0 to 2,000 μM herbicide, 37° C., dark, 16-20 hours
Description: To enhance the PPO-inhibiting herbicide resistance of CyPPO19 and CyPPO18, PPO variant genes of the above example 2 were constructed. They were transformed to BT3 (ΔPPO) strain which is deficient of PPO activity and cultured in LB media with PPO-inhibiting herbicide, thereby examining whether growth of transformed BT3 was not inhibited.
BT3 competent cells were transformed with the pET303-CyPPO19 (wild type), pET303-CyPPO18 (wild type) plasmids, and those with a mutation(s) constructed (refer to example 2) via heat shock method, and were cultured in LB agar media containing ampicillin.
Single colony transformed with each CyPPO gene was cultured in 3 mL of LB broth (LPSS) containing ampicillin for more than 12 hours, and then was subcultured in LB broth until absorbance (OD600) reached 0.5 to 1. Then, it was diluted with LB broth to OD600=0.5. Again, the diluted solution was serially diluted 4 times by a factor of one tenth.
The LB agar media (LB 25 g/L, Bacto agar 12 g/L) containing ampicillin (100 μg/mL) and 0 to 2,000 μM of various herbicides were prepared. Herbicide solution stocks were all prepared in DMSO.
Then, 10 μL of each diluted solution of E. coli was dropped on the plate and cultured at 37° C. under dark for 16-20 hours. PPO-inhibiting herbicide resistance was evaluated with the extent of E. coli growth containing each gene was observed.
The extent of herbicide resistance was evaluated by the relative growth of variants to that of wild type, and listed in Tables 9 and 10 and FIGS. 3 to 32.
In Tables 9 and 10, the tolerance level of variants showing equivalent resistance to wild type was presented as ‘−’, and was done as ‘+’ per each 10-fold resistance until ‘+++++’ as maximal resistance.
FIGS. 3 to 30 and FIGS. 31 and 32 show the transformed E. coli growth result of CyPPO19 WT and its variants and CyPPO18 WT and its variants, respectively. The concentrations of herbicides were written above the photographs of tolerance test. A 10-fold dilution series of spots were shown from OD600=0.5 of the leftmost spot to OD600=0.00005 of the rightmost one.

Row | Molecule | tolerance level relative to wild type, Carfentrazone | tolerance level relative to wild type, Flumioxazin | tolerance level relative to wild type, Fomesafen | tolerance level relative to wild type, Oxyfluorfen | tolerance level relative to wild type, Saflufenacil | tolerance level relative to wild type, Sulfentrazone | tolerance level relative to wild type, Tiafenacil
1 | CyPPO19 R89A + V305M + F360T: variant of CyPPO19 PPO protein (SEQ ID NO: 1) (protein, Synthetic_PPO of Thermosynechococcus elongatus PKUAC-SCTE542 (comprising GenBank No. CP032152.1)) MSEVDVAIVGGGLSGLSLAWRLQQSAPQYSVVLLEASDRLGGNITTQTAEGFVWELGPNSFAPTPALLQLIAEVGLQSELIRGDRHLPAYIYWRGQLYPLQPTRPLALATSNLLSPWGKVRAALGALGFVPPYLGSGDESVNSFFRRHLGQEVAERLVAPFVSGVYAGDPQQLSAAAAFRRIAQLEKLGGGLIAGALHLRRQQAPKPKPPTSVQMRPGELGSFKEGLAALPRAIAQQLKAPIHLQTPVQEITPDPKGGYLLRSGEQTWRARSVVLATPAYQTAELVAPFQPAIARVLATIPYPTMACVVLAYPAGLGRSVRPGFGVLIPRSQGIRTLGTIWSSCLFPQRTPAGWQVFTSTIGGATDPDLASLSEEAIVQQVQQDLNRLLDLPAAKARLLGMKVWRRAIPQYMVGYPEQWQQVTHALSQTPGLFLCSNYAEGVALGDRVEHGNRTAAAVAAYLSGGQP | ++ (‘+’ per each 10-fold resistance) | +++++ (until ‘+++++’ as maximal resistance) | +++ (‘+’ per each 10-fold resistance) | +++ (‘+’ per each 10-fold resistance) | +++++ (until ‘+++++’ as maximal resistance) | +++++ (until ‘+++++’ as maximal resistance) | +++++ (until ‘+++++’ as maximal resistance)
2 | CyPPO19 R89A + L327T + F360T: variant of CyPPO19 PPO protein (SEQ ID NO: 1) (protein, Synthetic_PPO of Thermosynechococcus elongatus PKUAC-SCTE542 (comprising GenBank No. CP032152.1)) MSEVDVAIVGGGLSGLSLAWRLQQSAPQYSVVLLEASDRLGGNITTQTAEGFVWELGPNSFAPTPALLQLIAEVGLQSELIRGDRHLPAYIYWRGQLYPLQPTRPLALATSNLLSPWGKVRAALGALGFVPPYLGSGDESVNSFFRRHLGQEVAERLVAPFVSGVYAGDPQQLSAAAAFRRIAQLEKLGGGLIAGALHLRRQQAPKPKPPTSVQMRPGELGSFKEGLAALPRAIAQQLKAPIHLQTPVQEITPDPKGGYLLRSGEQTWRARSVVLATPAYQTAELVAPFQPAIARVLATIPYPTVACVVLAYPAGLGRSVRPGFGVTIPRSQGIRTLGTIWSSCLFPQRTPAGWQVFTSTIGGATDPDLASLSEEAIVQQVQQDLNRLLDLPAAKARLLGMKVWRRAIPQYMVGYPEQWQQVTHALSQTPGLFLCSNYAEGVALGDRVEHGNRTAAAVAAYLSGGQP | + (‘+’ per each 10-fold resistance) | +++++ (until ‘+++++’ as maximal resistance) | +++++ (until ‘+++++’ as maximal resistance) | +++ (‘+’ per each 10-fold resistance) | +++++ (until ‘+++++’ as maximal resistance) | +++++ (until ‘+++++’ as maximal resistance) | +++++ (until ‘+++++’ as maximal resistance)
3 | CyPPO19 R89A + L327T + F360M: variant of CyPPO19 PPO protein (SEQ ID NO: 1) (protein, Synthetic_PPO of Thermosynechococcus elongatus PKUAC-SCTE542 (comprising GenBank No. CP032152.1)) MSEVDVAIVGGGLSGLSLAWRLQQSAPQYSVVLLEASDRLGGNITTQTAEGFVWELGPNSFAPTPALLQLIAEVGLQSELIRGDRHLPAYIYWRGQLYPLQPTRPLALATSNLLSPWGKVRAALGALGFVPPYLGSGDESVNSFFRRHLGQEVAERLVAPFVSGVYAGDPQQLSAAAAFRRIAQLEKLGGGLIAGALHLRRQQAPKPKPPTSVQMRPGELGSFKEGLAALPRAIAQQLKAPIHLQTPVQEITPDPKGGYLLRSGEQTWRARSVVLATPAYQTAELVAPFQPAIARVLATIPYPTVACVVLAYPAGLGRSVRPGFGVTIPRSQGIRTLGTIWSSCLFPQRTPAGWQVFTSMIGGATDPDLASLSEEAIVQQVQQDLNRLLDLPAAKARLLGMKVWRRAIPQYMVGYPEQWQQVTHALSQTPGLFLCSNYAEGVALGDRVEHGNRTAAAVAAYLSGGQP | + (‘+’ per each 10-fold resistance) | ++++ (‘+’ per each 10-fold resistance) | +++ (‘+’ per each 10-fold resistance) | ++ (‘+’ per each 10-fold resistance) | ++ (‘+’ per each 10-fold resistance) | ++ (‘+’ per each 10-fold resistance) | +++ (‘+’ per each 10-fold resistance)
4 | CyPPO19 R89A + I408R + F360M: variant of CyPPO19 PPO protein (SEQ ID NO: 1) (protein, Synthetic_PPO of Thermosynechococcus elongatus PKUAC-SCTE542 (comprising GenBank No. CP032152.1)) MSEVDVAIVGGGLSGLSLAWRLQQSAPQYSVVLLEASDRLGGNITTQTAEGFVWELGPNSFAPTPALLQLIAEVGLQSELIRGDRHLPAYIYWRGQLYPLQPTRPLALATSNLLSPWGKVRAALGALGFVPPYLGSGDESVNSFFRRHLGQEVAERLVAPFVSGVYAGDPQQLSAAAAFRRIAQLEKLGGGLIAGALHLRRQQAPKPKPPTSVQMRPGELGSFKEGLAALPRAIAQQLKAPIHLQTPVQEITPDPKGGYLLRSGEQTWRARSVVLATPAYQTAELVAPFQPAIARVLATIPYPTVACVVLAYPAGLGRSVRPGFGVLIPRSQGIRTLGTIWSSCLFPQRTPAGWQVFTSMIGGATDPDLASLSEEAIVQQVQQDLNRLLDLPAAKARLLGMKVWRRARPQYMVGYPEQWQQVTHALSQTPGLFLCSNYAEGVALGDRVEHGNRTAAAVAAYLSGGQP | + (‘+’ per each 10-fold resistance) | ++++ (‘+’ per each 10-fold resistance) | +++ (‘+’ per each 10-fold resistance) | ++ (‘+’ per each 10-fold resistance) | ++++ (‘+’ per each 10-fold resistance) | +++ (‘+’ per each 10-fold resistance) | +++ (‘+’ per each 10-fold resistance)
5 | CyPPO19 R89A + L327T + F360I: variant of CyPPO19 PPO protein (SEQ ID NO: 1) (protein, Synthetic_PPO of Thermosynechococcus elongatus PKUAC-SCTE542 (comprising GenBank No. CP032152.1)) MSEVDVAIVGGGLSGLSLAWRLQQSAPQYSVVLLEASDRLGGNITTQTAEGFVWELGPNSFAPTPALLQLIAEVGLQSELIRGDRHLPAYIYWRGQLYPLQPTRPLALATSNLLSPWGKVRAALGALGFVPPYLGSGDESVNSFFRRHLGQEVAERLVAPFVSGVYAGDPQQLSAAAAFRRIAQLEKLGGGLIAGALHLRRQQAPKPKPPTSVQMRPGELGSFKEGLAALPRAIAQQLKAPIHLQTPVQEITPDPKGGYLLRSGEQTWRARSVVLATPAYQTAELVAPFQPAIARVLATIPYPTVACVVLAYPAGLGRSVRPGFGVTIPRSQGIRTLGTIWSSCLFPQRTPAGWQVFTSIIGGATDPDLASLSEEAIVQQVQQDLNRLLDLPAAKARLLGMKVWRRAIPQYMVGYPEQWQQVTHALSQTPGLFLCSNYAEGVALGDRVEHGNRTAAAVAAYLSGGQP | + (‘+’ per each 10-fold resistance) | ++++ (‘+’ per each 10-fold resistance) | ++ (‘+’ per each 10-fold resistance) | + (‘+’ per each 10-fold resistance) | ++ (‘+’ per each 10-fold resistance) | +++ (‘+’ per each 10-fold resistance) | ++++ (‘+’ per each 10-fold resistance)
